Laboratory results from patent publication US20060251658A1 (Sanofi, published 2006).
Each block holds one binder with its values, some of them ahead of it.

Biological target: Recombinant human TGFβ1 (human, UniProt P01137 279-390)
Assay: cell-based or functional assay

Sequence of Recombinant human TGFβ1 (P01137 279-390 limits assumed): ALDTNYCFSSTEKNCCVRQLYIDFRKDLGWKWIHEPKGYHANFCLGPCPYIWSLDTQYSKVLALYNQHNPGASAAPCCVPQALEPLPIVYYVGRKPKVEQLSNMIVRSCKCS

Geometric Mean IC50, MLEC proliferation assay (n = 6; full dose response curve not obtained): < 1 nM
B1: PET1074B9 germlined IgG4 (antibody, V domains shown)
VH: QVQLVQSGAEVKKPGSSVKVSCKASGYTFSSNVISWVRQAPGQGLEWMGGVIPIVDIANYAQRFKGRVTITADESTSTTYMELSSLRSEDTAVYYCALPRAFVLDAMDYWGQGTLVTVSS
VL: ETVLTQSPGTLSLSPGERATLSCRASQSLGSSYLAWYQQKPGQAPRLLIYGASSRAPGIPDRFSGSGSGTDFTLTISRLEPEDFAVYYCQQYADSPITFGQGTRLEIK

% neutralisation at 91 pM antibody, MLEC proliferation assay: 12%
B2: 1D11.16 murine pan-specific anti-TGFβ monoclonal antibody (antibody, from another filing, V domains shown)
VH: QVQLQQSGPELVRPGASVKLSCKASGYIFITYWMNWVKQRPGQGLEWIGQIFPASGSTNYNEMFEGKATLTVDTSSSTAYMQLSSLTSEDSAVYYCARGDGNYALDAMDYWGQGTSVTVSS
VL: DIVLTQSPASLAVSLGQRATISCRASESVDSYGNSFMHWYQQKSGQPPKLLIYLASNLESGVPARFSGSGSRTDFTLTIDPVEADDAATYYCQQNNEDPLTFGAGTKLEIK
